# Laboratory results from article PMC10986000.
# Legend:
# [1] = biological target: full-length His-tagged PrsA (amino acid 1 to 320) (S. aureus HG001); assay: cross-linking; E. coli BL21(DE3) cells expressing His-PrsA, D3 or D4 treated with 1% formaldehyde, 5 min, room temperature, 0.1 M sodium phosphate pH 6.8; His-tagged proteins purified on Ni-NTA; SDS-PAGE after 37 °C or 95 °C, Coomassie, immunoblot, LC-MS/MS of bands
# [2] = biological target: protein A (SpA) on the surface of S. aureus HG001 (S. aureus (endogenous in HG001)) (UniProt P02976); assay: flow cytometry on cells; about 10^5 CFU S. aureus HG001 (also HG001ΔprsA and HG001ΔprsA(pGHL-PrsA)) in 2% BSA-PBS incubated with mouse IgG at 37 °C for 30 min, then FITC-conjugated anti-mouse IgG at 4 °C for 30 min; percent bound relative to the unstained population
# UniProt P02976, sequence (P02976 37-485): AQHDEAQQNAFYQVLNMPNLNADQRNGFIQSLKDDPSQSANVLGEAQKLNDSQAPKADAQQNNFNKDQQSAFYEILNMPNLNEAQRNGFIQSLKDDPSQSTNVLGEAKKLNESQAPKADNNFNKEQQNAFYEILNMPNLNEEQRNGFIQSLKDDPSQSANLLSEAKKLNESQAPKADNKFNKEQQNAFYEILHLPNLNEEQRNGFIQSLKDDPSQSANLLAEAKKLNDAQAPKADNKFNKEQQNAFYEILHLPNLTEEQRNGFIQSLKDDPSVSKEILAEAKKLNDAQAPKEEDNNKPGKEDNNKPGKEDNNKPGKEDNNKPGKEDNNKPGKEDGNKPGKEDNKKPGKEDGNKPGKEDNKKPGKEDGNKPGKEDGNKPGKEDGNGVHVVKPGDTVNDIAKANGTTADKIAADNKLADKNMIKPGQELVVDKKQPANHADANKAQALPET
# [3] = biological target: His-PrsA truncated mutant D3 (amino acids 1 to 146 and 251 to 320; PPIase domain deleted) (S. aureus HG001); assay: cross-linking; E. coli BL21(DE3) cells expressing His-PrsA, D3 or D4 treated with 1% formaldehyde, 5 min, room temperature, 0.1 M sodium phosphate pH 6.8; His-tagged proteins purified on Ni-NTA; SDS-PAGE after 37 °C or 95 °C, Coomassie, immunoblot, LC-MS/MS of bands
substance,measurement,setting,value
full-length His-tagged PrsA (amino acid 1 to 320) (natural protein),stoichiometry N,[1],2
mouse immunoglobulin IgG,percent of S. aureus binding to IgG,[2],41.8%
His-PrsA truncated mutant D3 (amino acids 1 to 146 and 251 to 320; PPIase domain deleted) (domain or fragment),stoichiometry N,[3],2
